We go through eight molecules from patent US9371374 (AbbVie / Abbott, dated 2016).

Positions count from the first letter of the chain named.

T1: HCV Core1-169 (HCV-1, UniProt P26664 1-169)
T1 construct: also called Solid Phase HCV Core
T1 sequence: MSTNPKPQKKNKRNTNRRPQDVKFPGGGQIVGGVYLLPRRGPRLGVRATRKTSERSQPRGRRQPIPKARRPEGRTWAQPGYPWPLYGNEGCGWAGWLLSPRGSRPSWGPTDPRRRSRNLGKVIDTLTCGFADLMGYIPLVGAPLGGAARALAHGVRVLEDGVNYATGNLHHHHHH

B1: HCV 208A-110 (antibody, V domains shown)
VH: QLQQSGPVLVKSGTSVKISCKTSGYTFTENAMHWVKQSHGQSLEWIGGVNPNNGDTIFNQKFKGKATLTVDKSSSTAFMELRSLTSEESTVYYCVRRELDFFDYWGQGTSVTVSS
VL: DIVLTQSPASLAVSLGQRATISCRASQSVSTSRYSYMHWYQQKPGQPPKLLIKYASNLESGVPARFSGSGSGTDFTLNIHPVAEEDTAAYYCQHSWEFPFTFGSGTKLEIKR
B2: HCV 208A-557 (antibody, V domains shown)
VH: QGQMQQSGAELVKPGASVKLSCKTSGFTFSSSYISWLKQKPGQSLEWIAWIYAGTGNTNYNQKFTDKAQLTVDTSSSTAYMQLSSLTTEDSAIYYCAISGTGFTYWGQGTLVTVSA
VL: B1 VL with V3A, K49E, A83G, A89T, E97D
B3: HCV 208A-293 (antibody, V domains shown)
VH: EVQLQQSGPELVKPGASVKISCKASGFTFTEYAMHWMKQSHGKSLEWIGGINPTNGDAIYNQKFKDKAKLTVDRSSSTAYMELRSLTSDDSALFYCARRELDYFPSWGQGTTLTVSS
VL: B1 VL with A12I, Y34F, M37V, Y40I, A64V, T76I, A83E, A89T, Y91F
B4: HCV 208A-741 (antibody, V domains shown)
VH: QLQQSGPVLVKPGASVMISCKTSGYTFTENAMHWVKQSHGKSLEWIGGVNPNNGDTIFNQKFKGKATLTVDKSSSTAFMELRSLTSEESTVYYCVRRELDFFDYWGQGTSVTVSS
VL: B1 VL with A19T, R24G, Y34F
B5: HCV 208A-692 (antibody, V domains shown)
VH: B2 VH with V12A, Y52F
VL: EVLMTQSPLSLPVSLGDQASISCRSSQSLEHSNGNTYLEWFLQRPGQPPKLLIYKVSSRFSGVPDRFSGSGSGTDFTLKISRVEAEDLGVYYCFQGSHVPFTFGSGTKLAIKR
B6: HCV 208B-612 (antibody, V domains shown)
VH: EVQLQQSGPELVKPGASVKMSCKASGYRFTSYVMHWVRQKPGQGLEWIGYIDPHNDDTKYSEKFRGKATLTSDKSSTTAYMELSSLTSEDSAVYYCVRYSYDRDYSPMDYWGQGTSVTVSS
VL: QIVLTQSPTLMSASPGEKVTMTCSASSTVTYIYWYQQKPGSSPRLWMYDTFNLVSGVPARFSGSRSGTSYFLTISSMEGEDAATYYCQQYSDSPYTFGGGTKLEIKR
B7: HCV 208B-1096 (antibody, V domains shown)
VH: QVQLQQSGAGLAKPGASVKMSCKASGYTFTANKMHWAKQRPGQGLEWIGYIDPSSGYTEYNHKIQYKATLTADTSSSTAYMQLSTLTFEDSAVYYCTNFAYWGQGTLVTVSA
VL: DIVMTQTPLTLSVTIGQPASISCKSSQSLLFTNGKTYLNWFLQRPGQSPKRLIYLLSKLDSGVPDRFSGSGSGTDFTLKISRVEAEDLGVYYCLQSTYFPLTFGAGTKLELKR
B8: HCV 208B-672 (antibody, V domains shown)
VH: EVKLVESGGSLVQPGGSLKLSCAASGFNFNTYAMSWVRQTPEKRLEWVAYISNGGGNTYYVDTVKGRFTISRDNAKNTLYLRMSSLKSEDTAMYYCARHGLYWGYSMDYWGQGTSVTVSS
VL: DIQMTQSPSSLSASLGERVSLTCRASQDIGGSINWLQQEPDGTIKRLIYATSSLDSGVPKRFSGSRSGSDYSLTISSLESEDFVDYYCLQYASSPPTFGGGTKLEIKR

One experiment deals with T1, HCV Core1-169. Briefly: sandwich EIA, capture C11-9.
For B1, the OD492 turned out to be 0.13 OD.
Same read-out and setting: the result for B2 reads 0.14 OD; that for B3, 2.6 OD; that for B4, 2.13 OD.
Same read-out and setting: the result for B5 reads 2.66 OD; that for B6, 0.64 OD; that for B7, 0.33 OD.

The next experiment concerns the target T1, HCV Core1-169. Nature of the experiment: sandwich EIA, capture 208B-612-226.
Molecule B1 showed an OD492 of 0.2 OD.
The same measure, in the same setting: the value for B2 was 0.25 OD.
Same read-out and setting: the value for B3 was 0.37 OD.
Molecule B4 yielded an OD492 of 0.29 OD.
Still for that read-out and setting: the value for B5 was 0.37 OD; that for B6 was 0.23 OD.
Still for that read-out and setting: the value for B7 was 0.24 OD.

In a further experiment the target is T1, HCV Core1-169. Nature of the experiment: sandwich EIA, NC capture mAb. Also: test concentration or dose not given here.
Regarding B1, the OD492 was 0.15 OD.
Still for that read-out and setting: the value for B2 was 0.18 OD.
Same read-out and setting: the value for B3 was 0.37 OD.
Take B4: the OD492 was found to be 0.29 OD.
Still for that read-out and setting: the result for B5 reads 0.4 OD; that for B6, 0.21 OD; that for B7, 0.17 OD.

In another experiment the target is T1, HCV Core1-169. Briefly: sandwich EIA, capture 208A-110.
Molecule B1 gave an OD492 of 0.18 OD.
Still for that read-out and setting: the value for B2 was 0.44 OD; that for B3 was 0.52 OD.
Turning to B4, the OD492 turned out to be 0.42 OD.
B5 came in with an OD492 of 0.54 OD.
B6: the OD492 worked out at 0.26 OD.
With B7, the OD492 amounted to 0.19 OD.

For a further experiment, the target named is T1, HCV Core1-169. Nature of the experiment: sandwich EIA, capture 208B-1096.
B1 showed an OD492 of 0.21 OD.
Regarding B2, the OD492 turned out to be 0.35 OD.
B3 came in with an OD492 of 0.41 OD.
On the same count and under the same terms, the result for B4 reads 0.52 OD; that for B5, 0.38 OD; that for B6, 0.7 OD.
The same measure, in the same setting: the result for B7 reads 0.26 OD.

The next experiment deals with T1, HCV Core1-169. Briefly: sandwich EIA, capture 208B-741.
The molecule B1 yielded an OD492 of 0.2 OD.
On the same count and under the same terms, the result for B2 reads 0.38 OD; that for B3, 0.5 OD; that for B4, 0.36 OD.
In the case of B5, the OD492 stood at 0.44 OD.
Regarding B6, the OD492 came to 0.23 OD.
The molecule B7 displayed an OD492 of 0.23 OD.

The next experiment addresses T1, HCV Core1-169. Nature of the experiment: sandwich EIA, capture 208A-692.
B1 displayed an OD492 of 0.14 OD.
Same read-out and setting: the result for B2 reads 0.13 OD.
B3 came in with an OD492 of 0.34 OD.
On the same count and under the same terms, the value for B4 was 0.32 OD; that for B5 was 0.35 OD; that for B7 was 0.15 OD.

The target of the next experiment is T1, HCV Core1-169. Briefly: sandwich EIA, capture 208B-395-334.
Consider B1, for which the OD492 amounted to 0.22 OD.
On the same count and under the same terms, the value for B2 was 0.28 OD.
Same read-out and setting: the value for B3 was 0.44 OD.
Same read-out and setting: the value for B4 was 0.34 OD; that for B5 was 0.44 OD.
B6 showed an OD492 of 0.83 OD.
Molecule B7 registered an OD492 of 0.2 OD.

Another experiment concerns the target HCV Core 134-171-TT peptide (ALRZ-9 peptide) (HCV-1). Briefly: SPR, captured mAb. (In general: Surface plasmon resonance follows binding to a sensor surface in real time, without labels.);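 also: Anti-HCV Core mAbs from hybridoma supernatants held on a rabbit anti-mouse IgG CM5 surface, peptide flowed over 3 min then 4 min dissociation, duplicate concentrations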
One may read the Kd as the constant that tells how readily two partners part at equilibrium. A lower Kd goes with tighter binding. Broadly, the koff is the rate constant with which the complex falls apart. A low value points to slow dissociation. As usually defined, the kon is the second-order rate constant of association. The low end stands for slow association, the high end for fast association. As to B1, binding was characterised by a dissociation constant (Kd) of 0.33 nM, the koff amounted to 0.00055 s⁻¹ and the kon was 1.7e+06 M⁻¹ s⁻¹.
The corresponding values for B2 are 0.091 nM, 0.00021 s⁻¹ and 2.4e+06 M⁻¹ s⁻¹.
B3 came in with a Kd of 0.11 nM, a koff of 0.00023 s⁻¹ and a kon of 2.1e+06 M⁻¹ s⁻¹.
The corresponding values for B4 are 0.41 nM, 0.00069 s⁻¹ and 1.7e+06 M⁻¹ s⁻¹.
The corresponding values for B8 are 0.16 nM, 0.00034 s⁻¹ and 2.2e+06 M⁻¹ s⁻¹.
The corresponding values for B6 are 0.35 nM, 6.5e-05 s⁻¹ and 180000 M⁻¹ s⁻¹.
The molecule B7 showed a Kd of 0.46 nM, a dissociation rate constant (koff) of 0.0006 s⁻¹ and a kon of 1.3e+06 M⁻¹ s⁻¹.

In a further experiment the target is T1, HCV Core1-169. Briefly: sandwich EIA, capture C11-7.
In the case of B1, the OD492 is 0.18 OD.
Same read-out and setting: the result for B2 reads 0.22 OD; that for B3, 2.87 OD.
On the same count and under the same terms, the result for B4 reads 2.36 OD; that for B5, 2.92 OD; that for B6, 1.52 OD.
The molecule B7 gave an OD492 of 1.06 OD.

The next experiment has as its target T1, HCV Core1-169. Nature of the experiment: sandwich EIA, capture 208A-557.
B1: the OD492 amounted to 0.17 OD.
Same read-out and setting: the result for B2 reads 0.32 OD; that for B3, 0.52 OD; that for B4, 0.4 OD.
Same read-out and setting: the result for B5 reads 0.53 OD.
B6 yielded an OD492 of 0.23 OD.
With B7, the OD492 amounted to 0.17 OD.

In a further experiment the target is T1, HCV Core1-169. Nature of the experiment: sandwich EIA, capture 208A-207-271.
For B1, the OD492 came out at 0.17 OD.
The same measure, in the same setting: the value for B2 was 0.18 OD.
In turn, B3 had an OD492 of 0.39 OD.
Same read-out and setting: the result for B4 reads 0.33 OD; that for B5, 0.39 OD; that for B6, 0.24 OD.
Same read-out and setting: the result for B7 reads 0.18 OD.

The next experiment deals with T1, HCV Core1-169. Nature of the experiment: sandwich EIA, capture 208A-293.
Molecule B1 returned an OD492 of 0.2 OD.
For the molecule B2, the OD492 amounted to 0.41 OD.
Still for that read-out and setting: the value for B3 was 0.49 OD.
Still for that read-out and setting: the value for B4 was 0.42 OD; that for B5 was 0.51 OD; that for B6 was 0.28 OD.
The same measure, in the same setting: the value for B7 was 0.24 OD.
